Measurements from patent publication US11426447B2, “Neuregulin for the treatment of tumors of the nervous system” (LEIBNIZ-INSTITUT FUR …, priority 2016, dated 2022).

Experiments:
[1] = Body weight and tolerability of systemically treated animals; format: in vivo, mice
Description: A, Schematic representation of the protocol used to assess the efficacy of rhNRG1 treatment on schwannoma growth after experimental sciatic nerve crush injury. B, Serum levels of rhNRG1 after single intraperitoneal injections of 10 μg rhNRG1 per kg body weight measured in pooled blood (n=4 animals; median). C, Body weight of animals receiving (genotype and treatment as indicated) was determined over 13 weeks.
Crush injury-induced schwannoma formation was provoked in 2-month-old mice. Subsequently, administration of rhNRG1 was performed both systemically (by intraperitoneal injection) and locally (by rhNRG1-containing absorbable collagen sponges (ACS)). Vehicle saline solution was given to control animals. In order to assess the bioavailability of intraperitoneally injected rhNRG1 (10 μg per kg body weight), rhNRG1 serum levels were evaluated. Strikingly, rhNRG1 levels reached a peak 2 days after injection (FIG. 1B). […] A significant decline in body weight at the chosen dosage was, however, not observed (FIG. 1C).

[2] = system: Schwann cell differentiation markers in crushed sciatic nerves; assay: Immunoblot of sciatic nerve lysates after 3 months of treatment; format: in vivo, Nf2flox;P0-Cre;Nefh-Cre mice
Description: Immunoblotting was performed as described in (Morrison et al., 2001). The following primary antibodies were used: phospho-c-Jun (Ser73; 1:1000; Cell Signalling; 8752), anti-Nrg1 (1:250; Santa Cruz; clone C-20), anti-Erk (1:500; Cell Signalling), anti-phospho-Erk (T202/Y204; 1:500; Cell Signalling), anti-ErbB2 (1:500; Cell Signalling), anti-GAPDH (1:1000; Santa Cruz; 6C5), anti-merlin (1:500; Santa Cruz; A19). Western blot results were quantified using Gel analysis software by ImageJ. Density values were normalized to actin and appropriate controls of transfection or wild-type tissue, respectively. In case of phospho-specific detection of proteins, their acquired densities were referred to signals derived from related pan-antibodies (e.g. phospho-Erk to Erk signals).
Sciatic nerve crush injury was performed on WT and Nf2flox;P0-Cre;Nefh-Cre mutant animals as described in Example 1. The Nf2flox;P0-Cre;Nefh-Cre mutant animals were intraperitoneally injected every day with 10 μg of rhNRG1 per kg body weight (KO rhNRG1). For a control a PBS solution was systemically administered to WT animals and Nf2flox;P0-Cre;Nefh-Cre mutant animals (WT vehicle and KO vehicle). Sciatic nerve lysates were taken from animals after 3 month of treatment upon which immunochemistry was performed as described in Example 1.

[3] = system: crush injury-induced schwannoma; assay: In situ tumour size quantification: sciatic nerve diameter after crush injury-induced schwannoma formation; format: in vivo, Nf2flox;P0-Cre;Nefh-Cre mutant mice; settings: KO mice
Description: Unilateral injuries of sciatic nerves were accomplished according to a previously described method (Bauder and Ferguson, 2012). In brief, 8 to 10 week old mice were anesthetized using 2% isoflurane in 100% oxygen. Fur was then removed from one hind limb. After an appropriate incision of the skin, the gluteal musculature was separated in order to reveal the right sciatic nerve. Using haemostatic forceps (Ultra Fine Haemostat; #13021-12; tip width 0.6 mm; Fine Science Tools; Germany), the nerve was crushed once by the application of a defined pressure for 20 s. The locking mechanism of the haemostatic forceps with a series of interlocking teeth ensured reproducibility and standardization of crush injury. Finally, both the gluteal musculature and skin incision were sutured using appropriate surgical suture material.
An EGF domain containing 7 kDa protein of recombinant human Neuregulin 1 (“rhNRG1”) was purchased from Reprokine (#RKQ02297; USA). Protein was firstly resolved in ddH2O and further diluted in phosphate-buffered saline (PBS) to reach target concentrations. […]
Sciatic nerve crush injury was conducted on WT mice and Nf2flox;P0-Cre;Nefh-Cre mutant mice as described above. […] Moreover by determining the myelin thickness, structural integrity of non-crushed, intact nerves was assessed (FIG. 7).

pre-existing schwannomas = assay: rhNRG1 treatment of pre-existing schwannomas: maximum sciatic nerve diameter; format: in vivo, Nf2flox;P0-Cre;Nefh-Cre mutant mice; settings: 3 months untreated, then 3 months systemic rhNRG1, vs vehicle
Description: A, Schematic representation of the protocol used to assess the efficacy of rhNRG1 treatment on pre-existing schwannomas. B, Quantification of maximum sciatic nerve diameters 3 and 6 months after nerve crush injury. Nf2flox;P0-Cre;Nefh-Cre mutant mice received either saline injections (vehicle) or intraperitoneal administration of rhNRH1 (** P<0.01 for differences between vehicle and rhNRG1-treated animals; n=6 animals per genotype; mean±SEM).
Three months after crush injury the right sciatic nerve of all animals was exposed surgically in order to assess sciatic nerve diameter as indicator for tumour size. Documentation was performed by video-assisted microscopy for each animal. Selected frames from the video files (using VirtualDub 1.6.19 software) were used to determine sciatic nerve diameter using ImageJ.
Two cohorts of animals underwent crush injury-induced schwannoma induction at the right sciatic nerve as described above (FIG. 5A). […] Then knockout animals (Nf2flox;P0-Cre;Nefh-Cre mutant animals) received either systemic rhNRG1 treatment or vehicle control applications for three months (FIG. 5A). […] (FIG. 5B)

[4] = in vivo; cited from earlier work

B1: rhNRG1: EGF domain containing 7 kDa protein of recombinant human Neuregulin 1, purchased from Reprokine (#RKQ02297) (protein, listed as Homo sapiens)
chain: SHLVKCAEKEKTFCVNGGECFMVKDLSNPSRYLCKCPNEFTGDRCQNYVMASFYKHLGIEF
With B1 the tolerability ([1]; 10 μg/kg, Nf2flox;P0-Cre;Nefh-Cre animals) was “well tolerated”, the “significant decline in body weight” value ([1]; systemic treatment at chosen dosage (10 μg/kg ip every other day), weighed weekly over 13 weeks) was “not observed” and the “21.5-kDa MBP isoform expression (immunoblot)” value ([2]; KO rhNRG1) was “strong up-regulation”. For the same molecule, the “myelin protein zero (MPZ) expression (immunoblot)” value ([2]; KO rhNRG1, 3 months of treatment, vs wildtype) was “reduced expression”, the “17 kDa myelin basic protein (MBP) isoform expression (immunoblot)” value ([2]; KO rhNRG1 vs wildtype littermates) was “remarkable reduced expression” and the “c-Jun levels (marker for undifferentiated Schwann cells)” value ([2]; knockout animals, systemic rhNRG1 injections) was “reduced”. The “ErbB2 expression (immunoblot)” value ([2]; rhNRG1-treated knockout mice, high in vehicle-treated knockout) was “normal expression”, the “macrophage number in nerve tissue (Iba-1 immunoblot)” value ([2]; systemic rhNRG1 treatment) was “not influenced” and the “sciatic nerve diameter 3 months after crush injury” value ([3]; local collagen sponges soaked in 0.2 mg/ml rhNRG1, KO vehicle ACS about 1.8 mm, WT about 1 mm) was “about 1.4 mm”. The “sciatic nerve diameter 3 months after crush injury” value ([3]; systemic (ip) rhNRG1, KO vehicle about 2 mm, WT vehicle about 1 mm) was “about 1.5 mm”, the “tumor size (maximum sciatic nerve diameter)” value (pre-existing schwannomas) was “markedly smaller” and the body weight [4] was “decrease in body weight”.
